# Non-standard residues stand in square brackets, D forms with d. No end group written: not given here. pY = N[C@@H](Cc1ccc(OP(=O)(O)O)cc1)C(=O)O
# Molecular target: STAT3 with DNA-binding activity in vitro (activated STAT3 dimers)
# Test: cell-based or functional assay
row,Binder,"IC50, Disruption of STAT3 DNA-binding Activity [µM]"
1,Ac-P[pY]LKTK [Ac-PY*LKTK (SEQ ID NO:32)],212
2,Ac-P[pY]LK [Ac-PY*LK (SEQ ID NO:34)],156
3,Ac-[pY]-Leu-Lys [Ac-Y*LK (SEQ ID NO:31)],421
4,P[pY]LKTK [PY*LKTK (SEQ ID NO:20)],280
5,P[pY]LA [PY*LA (SEQ ID NO:35)],326
6,A[pY]LK [AY*LK (SEQ ID NO:30)],365

# Source: patent publication US20070060521A1 (UNIVERSITY OF SOUTH FLORIDA A PUBLIC CORPORATION OF THE …, published 2007)
